Assay results taken from patent US20070020327A1.
Where two headings read alike, the source gives them in different places. Blank lines part the entries; values can stand above or below the binder they belong to.

Tests used:
HLA-A*0201 (human) [1] = experiment: competition with 125I-labelled standard peptide for purified HLA, gel filtration; ratio = IC50 standard / IC50 test peptide
[2] = target: HLA-A*0201 (purified HLA class I molecule) (human); experiment: competition with 125I-labelled standard peptide for purified HLA, gel filtration
HLA-A*0201 (human) [3] = experiment: as above; conditions: for binding affinity ratio: scale: ratio
HLA-A*0202 (human) = experiment: as above
HLA-A*0203 (human) = experiment: as above; conditions: for binding affinity ratio: scale: ratio
HLA-A*0206 (human) = experiment: as above
HLA-A*0301 (human) = experiment: as above
[4] = remark: other sources report otherwise

B2: Kallikrein (hK2) peptide …, position 142, 9 amino acids (peptide)
peptide: PTQEPALGT
modifications: not checked
binding affinity ratio (ratio to standard peptide) (HLA-A*0201 (human) [1]): 0.0001

B3: PAP peptide …, position 72, 10 amino acids (peptide)
peptide: QLGMEQHYEL
modifications: not checked
binding affinity ratio (ratio to standard peptide) (HLA-A*0201 (human) [1]): 0.0003

B4: PSA peptide … (position 50, 10 amino acids) (peptide)
peptide: LVHPQWVLTA
modifications: not checked
binding affinity ratio (IC50 of standard peptide / IC50 of test peptide) [2]: 0.0001

B5: PAP peptide …, position 276, 9 amino acids (peptide)
peptide: QIPSYKKLI
modifications: not checked
binding affinity ratio (ratio to standard peptide) (HLA-A*0201 (human) [1]): 0.0002

B6: PSA peptide LVHPQWVL (position 50, 8 amino acids) (peptide)
peptide: LVHPQWVL
modifications: not checked
binding affinity ratio (IC50 of standard peptide / IC50 of test peptide) [2]: 0.0001

B9: PSA peptide … (position 118, 11 amino acids) (peptide)
peptide: MLLRLSEPAEL
modifications: not checked
binding affinity ratio (IC50 of standard peptide / IC50 of test peptide) [2]: 0.14

B10: Kallikrein (hK2) peptide LVHPQWVL (position 54, 8 amino acids) (peptide)
peptide: LVHPQWVL
modifications: not checked
binding affinity ratio (IC50 of standard peptide / IC50 of test peptide) [2]: 0.0001

B12: Kallikrein 153 peptide YASGWGSI (peptide)
peptide: YASGWGSI
modifications: not checked
binding affinity ratio (IC50 of the standard peptide / IC50 of the test peptide) (HLA-A*0201 (human) [3]): -0.0001 | binding affinity ratio (IC50 of the standard peptide / IC50 of the test peptide) (HLA-A*0202 (human)): 0.0009 | binding affinity ratio (IC50 of the standard peptide / IC50 of the test peptide) (HLA-A*0203 (human)): 0.0003 | binding affinity ratio (IC50 of the standard peptide / IC50 of the test peptide) (HLA-A*0206 (human)): 0.0003

B13: PSA 149 peptide YASGWGSI (peptide)
peptide: YASGWGSI
modifications: not checked
binding affinity ratio (IC50 of the standard peptide / IC50 of the test peptide) (HLA-A*0201 (human) [3]): -0.0001 | binding affinity ratio (IC50 of the standard peptide / IC50 of the test peptide) (HLA-A*0202 (human)): 0.0009 | binding affinity ratio (IC50 of the standard peptide / IC50 of the test peptide) (HLA-A*0203 (human)): 0.0003 | binding affinity ratio (IC50 of the standard peptide / IC50 of the test peptide) (HLA-A*0206 (human)): 0.0003

B16: PAP peptide …, position 101, 9 amino acids (peptide)
peptide: QVYIRSTDV
modifications: not checked
binding affinity ratio (ratio to standard peptide) (HLA-A*0201 (human) [1]): 0.0002

B17: PAP peptide … (position 298, 10 amino acids) (peptide)
peptide: MALDVYNGLL
modifications: not checked
binding affinity ratio (IC50 of standard peptide / IC50 of test peptide) [2]: 0.001

B18: PSA peptide … (position 203, 11 amino acids) (peptide)
peptide: STCSGDSGGPL
modifications: not checked
binding affinity ratio (HLA-A*0201 (human) [3]; [4]): 0.0005 | binding affinity ratio (HLA-A*0203 (human); [4]): 0.0092 | binding affinity ratio (HLA-A*0206 (human); remark: other sources report otherwise, scale: ratio): 0.0002

B19: PAP peptide … (position 232, 10 amino acids) (peptide)
peptide: MTKLRELSEL
modifications: not checked
binding affinity ratio (IC50 of standard peptide / IC50 of test peptide) [2]: 0.0002

B21: Kallikrein 102 … (peptide)
peptide: NMSLLKHQSL
modifications: not checked
binding affinity ratio (IC50 of standard peptide / IC50 of test peptide) (HLA-A*0203 (human); [4]): 0.04

B22: Kallikrein (hK2) peptide … (position 54, 11 amino acids) (peptide)
peptide: LVHPQWVLTAA
modifications: not checked
binding affinity ratio (IC50 of standard peptide / IC50 of test peptide) [2]: 0.0001

B28: PSA peptide … (position 50, 11 amino acids) (peptide)
peptide: LVHPQWVLTAA
modifications: not checked
binding affinity ratio (IC50 of standard peptide / IC50 of test peptide) [2]: 0.0001

B31: Kallikrein (hK2) peptide … (position 54, 10 amino acids) (peptide)
peptide: LVHPQWVLTA
modifications: not checked
binding affinity ratio (IC50 of standard peptide / IC50 of test peptide) [2]: 0.0001

B32: Kallikrein (hK2) peptide … (position 4, 9 amino acids) (peptide)
peptide: LVLSIALSV
modifications: not checked
binding affinity ratio (IC50 of standard peptide / IC50 of test peptide) [2, 4]: 0.002

B35: PAP peptide …, position 297, 10 amino acids (peptide)
peptide: QMALDVYNGL
modifications: not checked
binding affinity ratio (ratio to standard peptide) (HLA-A*0201 (human) [1]): 0.0002

B36: PSA peptide … (position 50, 9 amino acids) (peptide)
peptide: LVHPQWVLT
modifications: not checked
binding affinity ratio (IC50 of standard peptide / IC50 of test peptide) [2]: 0.0001

B41: Kallikrein (hK2) peptide … (position 54, 9 amino acids) (peptide)
peptide: LVHPQWVLT
modifications: not checked
binding affinity ratio (IC50 of standard peptide / IC50 of test peptide) [2]: 0.0001

B42: Kallikrein 129 … (peptide)
peptide: PAKITDVVKVL
modifications: not checked
binding affinity ratio (IC50 of standard peptide / IC50 of test peptide) (HLA-A*0201 (human) [3]): 0.0002 | binding affinity ratio (IC50 of standard peptide / IC50 of test peptide) (HLA-A*0202 (human)): 0.0006 | binding affinity ratio (IC50 of standard peptide / IC50 of test peptide) (HLA-A*0203 (human)): 0.0017 | binding affinity ratio (IC50 of standard peptide / IC50 of test peptide) (HLA-A*0206 (human)): -0.0001

B43: Kallikrein (hK2) peptide …, position 72, 9 amino acids (peptide)
peptide: QVWLGRHNL
modifications: not checked
binding affinity ratio (ratio to standard peptide) (HLA-A*0201 (human) [1]): 0.0001

Next, values leading:

binding affinity ratio (ratio to standard peptide) (HLA-A*0201 (human) [1]): 0.0006
B1: PSM peptide …, position 740, 10 amino acids (peptide)
peptide: QAAAETLSEV
modifications: not checked

binding affinity ratio (ratio to standard peptide) (HLA-A*0201 (human) [1]): 0.0001
B7: PSA peptide …, position 87, 10 amino acids (peptide)
peptide: QVSHSFPHPL
modifications: not checked

binding affinity ratio (IC50 of standard peptide / IC50 of test peptide) [2]: 0.0001
B8: PSM peptide … (position 473, 9 amino acids) (peptide)
peptide: LVHNLTKEL
modifications: not checked

binding affinity ratio (IC50 of standard peptide / IC50 of test peptide) [2]: 0.0001
B11: PSM peptide … (position 3, 9 amino acids) (peptide)
peptide: NLLHETDSA
modifications: not checked

IC50 (HLA-A*0201 (human) [3]): 26 nM | IC50 (HLA-A*0202 (human)): 0.4 nM | IC50 (HLA-A*0203 (human)): 5 nM | IC50 (HLA-A*0206 (human)): 57 nM
B14: peptide 1389.20 (PSM.27.V9) (peptide)
peptide: VLAGGFFLV
modifications: not checked

binding affinity ratio (IC50 of standard peptide / IC50 of test peptide) (HLA-A*0301 (human)): 0.0003
B15: … (PSM, position 646, 10 amino acids) (peptide)
peptide: FSERLQDFDK
modifications: not checked

binding affinity ratio (ratio to standard peptide) (HLA-A*0201 (human) [1]): 0.0001
B20: PSM peptide …, position 578, 10 amino acids (peptide)
peptide: QVRGGMVFEL
modifications: not checked

IC50 (HLA-A*0201 (human) [3]): 6.8 nM | IC50 (HLA-A*0202 (human)): 3 nM | IC50 (HLA-A*0203 (human)): 18 nM | IC50 (HLA-A*0206 (human)): 65 nM
B23: peptide 1419.27 (PSA.3.V11) (peptide)
peptide: FLTLSVTWIGV
modifications: not checked

IC50 (HLA-A*0202 (human)): 0.8 nM | IC50 (HLA-A*0203 (human)): 1.7 nM | IC50 (HLA-A*0206 (human)): 7.6 nM
B24: peptide 1126.01 (PSM.663) (peptide)
peptide: MMNDQLMFL
modifications: not checked

binding affinity ratio (HLA-A*0201 (human) [3]): 0.0001 | binding affinity ratio (HLA-A*0203 (human)): 0.0009
B25: … (Kallikrein, position 137, 11 amino acids) (peptide)
peptide: KVLGLPTQEPA
modifications: not checked

binding affinity ratio (ratio to standard peptide) (HLA-A*0201 (human) [1]): 0.0001
B26: PSM peptide …, position 218, 9 amino acids (peptide)
peptide: QLAGAKGVI
modifications: not checked

binding affinity ratio (ratio to standard peptide) (HLA-A*0201 (human) [1]): 0.0001
B27: PSA peptide …, position 138, 9 amino acids (peptide)
peptide: PTQEPALGT
modifications: not checked

binding affinity ratio (ratio to standard peptide) (HLA-A*0201 (human) [1]): 0.0006
B29: PSM peptide …, position 218, 10 amino acids (peptide)
peptide: QLAGAKGVIL
modifications: not checked

binding affinity ratio (ratio to standard peptide) (HLA-A*0201 (human) [1]): 0.0001
B30: PSA peptide …, position 182, 11 amino acids (peptide)
peptide: QVHPQKVTKFM
modifications: not checked

binding affinity ratio (IC50 of standard peptide / IC50 of test peptide) [2]: 0.0002
B33: PSM peptide … (position 260, 10 amino acids) (peptide)
peptide: NLNGAGDPLT
modifications: not checked

binding affinity ratio (ratio to standard peptide) (HLA-A*0201 (human) [1]): 0.0001
B34: PSA peptide …, position 35, 11 amino acids (peptide)
peptide: QVLVASRGRAV
modifications: not checked

IC50 (HLA-A*0203 (human); [4]): 9.5 nM
B37: peptide 1419.24 (PSA.166.V10) (peptide)
peptide: KLQCVDLHVV
modifications: not checked

binding affinity ratio (IC50 of standard peptide / IC50 of test peptide) [2]: 0.0002
B38: PSM peptide … (position 216, 10 amino acids) (peptide)
peptide: NAQLAGAKGV
modifications: not checked

binding affinity ratio (ratio to standard peptide) (HLA-A*0201 (human) [1]): 0.0001
B39: PSA peptide …, position 35, 10 amino acids (peptide)
peptide: QVLVASRGRA
modifications: not checked

binding affinity ratio (IC50 of standard peptide / IC50 of test peptide) (HLA-A*0301 (human)): 0.4
B40: … (PSM, position 491) (peptide)
peptide: KSLYESWTK
modifications: not checked
